Columns and labels:
CmGH1 = target: T1, CmGH1 (Croceicoccus marinus, UniProt A0A1Z1FG87); assay: residual p-NPG hydrolysis with added glucose; format: biochemical; details: p-NPG substrate; product inhibition
T1 construct: gene A9D14_15590; N-terminal His6-SUMO tag (pSMT3) cut with Ulp1; expressed in E. coli BL21 (DE3)

purified protein = substrate: O=[N+]([O-])c1ccc(O[C@@H]2O[C@H](CO)[C@@H](O)[C@H](O)[C@H]2O)cc1; assay: purified protein; details: conditions of the Km not stated, optimum pH 9.0, 55°C

| % relative activity remaining at 200 mM (CmGH1) | Molecule | Km (purified protein) | kcat (purified protein) |
| --- | --- | --- | --- |
| > 30% | OC[C@H]1OC(O)[C@H](O)[C@@H](O)[C@@H]1O (some centres unmarked) [glucose] |  |  |
|  | CmGH1 (Croceicoccus marinus) (protein) MTSDLIAKLSVNAGEPIGNMRQLHGTSGIPAPAPGTDSVPDILDVWRNAQVTLVRSYDWVSRLDTIDNPTSLFPDWSADPSDPASYNFAATDTWVGQTRSIGANILFTIASEIPANKQPARDLAKYEQVVENIVRHYVCGWGDGFENAVSHWEFGDQPDFGKLHFSGTPDQFYEMYAAAARAVKRVDPALKVGGPCVAFPLNEGPFREGFLDYVKQQSVPLDFLSWMWYGDNSRDPMDFRTIAAEVRAIVDKYGFTDTELLLSYWSMTGIPTAKFEDFDNAAFLAAAAIYMQDSEVDKAIFFRADTGADFHYNFTDPAGIFEDDGSQNARTGAFQLVGQTLATTERLAITGGDDNGFAALAGRTADGDTIRILISNYAIPDMYLTARDRDVFEFQVPIGDQKTDMSLNVPPRRVDARSTGYSGYTLEIGHLPWGDGPHRVVRYRADRDHKGEMLDSHEGRGSSVTVQNKLAVSGVELIEITRVSS | 332 ± 38 µM | 0.0358 ± 0.00135 s⁻¹ |
|  | CmGH1 (Croceicoccus marinus; Q157E) (protein) MTSDLIAKLSVNAGEPIGNMRQLHGTSGIPAPAPGTDSVPDILDVWRNAQVTLVRSYDWVSRLDTIDNPTSLFPDWSADPSDPASYNFAATDTWVGQTRSIGANILFTIASEIPANKQPARDLAKYEQVVENIVRHYVCGWGDGFENAVSHWEFGDEPDFGKLHFSGTPDQFYEMYAAAARAVKRVDPALKVGGPCVAFPLNEGPFREGFLDYVKQQSVPLDFLSWMWYGDNSRDPMDFRTIAAEVRAIVDKYGFTDTELLLSYWSMTGIPTAKFEDFDNAAFLAAAAIYMQDSEVDKAIFFRADTGADFHYNFTDPAGIFEDDGSQNARTGAFQLVGQTLATTERLAITGGDDNGFAALAGRTADGDTIRILISNYAIPDMYLTARDRDVFEFQVPIGDQKTDMSLNVPPRRVDARSTGYSGYTLEIGHLPWGDGPHRVVRYRADRDHKGEMLDSHEGRGSSVTVQNKLAVSGVELIEITRVSS | 354.2 ± 42 µM | 0.488 ± 0.0147 s⁻¹ |

Source: PMC6933502, “Structural and Functional Insights Into CmGH1, a Novel GH39 Family β-Glucosidase From Deep-Sea Bacterium” (Frontiers in Microbiology, 2019)
